The target of the assay is human RET on cells (MCF7/SRE-Luc; HEK293/hGFRα3/hRET/SRE-Luc; HEK293/hGFRα1/hRET/SRE-Luc) (human), P07949. Nature of the assay: cell-based or functional assay.

The values that follow come from patent US20220185900A1.

A value given as a limit tells only on which side of the number the result lay.

B1: H4H8046P (antibody, human IgG4, V domains shown)
VH: QVQLVQSRDEVKKPGASVKVSCKASGYTFTTYGISWVRQAPGQGLEWMGWINTYNGDTNYAQKVQDRVIMTTDTSTSTAYMELRSLRSDDTAVYFCAGARPLGGRRAFDIWGQGTMVTVSS
VL: DIQMTQSPSSLSASVGDRVTITCRASQGISHYLAWYQQKPGKVPKLLIYAASTLQSGVPSRFSGSGSGTDFTLTISSLQPEDVATYYCQKYNSVPWTFGQGTKVEIK
For the molecule B1, the 293/hGFRα3/hRET SRE-luc % Blocking turned out to be 91%, the 293/hGFRα3/hRET/SRE-Luc IC50 is 11.8 nM, the MCF7/SRE-Luc % Activation amounted to 5% and the MCF7/SRE-Luc Avg % Blocking was 78%. Moreover, the MCF7/SRE-luc Avg. IC50 is 44 nM.

B2: H4H8056P (antibody, human IgG4, V domains shown)
VH: QVQLVESGGGVVQPGRSLRLSCAASGFTFRNYGMHWVRQAPGKGLEWVAVKRYDGSDEYFVDSVKGRFTISRDNSKNTLFLQMNSLRVDDTAVYYCARETPITGTTLDYWGQGTLVTVSS
VL: DIQMTQSPSSLSASVGDRVTITCRTSQSITNYLNWYQQKPGKAPKLLIYAASRSQSGVPSRFSGSGSGTDFTLTISSLQPEDFATYYCQQSYSTPLTFGGGTKVEIK
Take B2: the MCF7/SRE-Luc % Activation is 0%, the MCF7/SRE-Luc Avg % Blocking amounted to 73% and the MCF7/SRE-luc Avg. IC50 came out at 2 nM.

B3: H4H8058P (antibody, human IgG4, V domains shown)
VH: QVQLVESGGGVGQPGRSLRLSCVASGFTFRNYGMHWVRQAPGKGLDWVAIIGYDGSKEYNVDSVKGRFTISRDNSKNTLYLQMNSLGAEDTAIYYCARESPITGTTFDYWGQGTLVTVSS
VL: DIQMTQSPPSLSASVGDRVTITCRASQSIGNYLNWYQQKPGKAPKILIYAASRLQSGVPSRFSGSGSGTDFTLTISSLQPEDFATYYCQQSYSTPLTFGGGTKVEIK
As for B3, the Internalization (% H4H8087P), HEK293/hGFRa1/hRET/SRE-Luc cells, 37 C stood at 42%; the MCF7/SRE-Luc % Activation is 0%; the MCF7/SRE-Luc Avg % Blocking stood at 85%; the MCF7/SRE-luc Avg. IC50 turned out to be 5.4 nM.

B4: H4H8062P (antibody, human IgG4, V domains shown)
VH: EVQLVESGGGLVQPGGSLRLSCSVSGFIFKNYAMRWVRQAPGKGLEWVSGISGSGGITYYADSVRGRVTISRDNSKNTLDLQMTNLRAEDTAVYYCAKAEYSSSGAYFDYWGQGTLVTVSS
VL: DIQMTQSPSSLSASVGDRVTITCRASQSIHNYLNWYLQRPGKAPKLLVYAASSLQSGVPSRFSGRGSGTDFTLTISSLQPEDFATYYCQQSYSAPYSFGQGTKLEIK
Turning to B4, the Internalization (% H4H8087P), HEK293/hGFRa1/hRET/SRE-Luc cells, 37 C was 44.9%; the MCF7/SRE-Luc % Activation was 0%; the MCF7/SRE-Luc Avg % Blocking was determined as 100%; the MCF7/SRE-luc Avg. IC50 stood at 5.2 nM.

B5: H4H8067P (antibody, human IgG4, V domains shown)
VH: QVQLVESGGGVVQPGRSLRLSCVASGFTFSNYGMHWVRQAPGKGLEWVALIWYDGSNKYFADSVKGRFTISRDNSKRMMFLEMNSLRAEDTAIYYCTRDRLFDFWGQGTLVTVSS
VL: AIQMTQSPSSLSASVGDRVSITCRASQDIRHDLGWFHQKPGKAPKLLIYAASTLQSGVPSRFGGSGSGTDFTLTITSLQPEDFGTYYCLQDYNYPATFGQGTRLEIK
On to B5, for which the 293/hGFRα3/hRET SRE-luc % Blocking is 99%; the 293/hGFRα3/hRET/SRE-Luc IC50 was determined as 4.8 nM; the Internalization (% H4H8087P), HEK293/hGFRa1/hRET/SRE-Luc cells, 37 C worked out at 58.2%; the MCF7/SRE-Luc % Activation was found to be 0%. The MCF7/SRE-Luc Avg % Blocking came to 91% and the MCF7/SRE-luc Avg. IC50 was 3.8 nM.

B6: H4H8083P (antibody, human IgG4, V domains shown)
VH: QVQLVESGGGVVQPGRSLRLSCAASGFTFNNYVMHWVRQAPGKGLEWVALIWYDGSNKYYADSVKGRFTISRDNSKNALNLQMNSLRAEDTAVYFCARVSIAARNYYYGGLDVWGQGTTVTVSS
VL: EIVLTQSPGTLSLSPGERATLSCRASQSVSSTYLAWYQQKPGQAPRLLIYGASSRATGIPDRFSGSGSGTDFTLTISRLEPEDFAVYYCQHYGGSPLTFGGGTKVEIK
Molecule B6 had a 293/hGFRα3/hRET SRE-luc % Blocking of 81%, a 293/hGFRα3/hRET/SRE-Luc IC50 of 57 nM, an MCF7/SRE-Luc % Activation of 0% and an MCF7/SRE-Luc Avg % Blocking of 68%. The same molecule returned an MCF7/SRE-luc Avg. IC50 of over 100 nM.

B7: H4H8066P (antibody, human IgG4, V domains shown)
VH: EVQLVESGGGLVQPGGSLRLSCEASGFTFSRYAMTWVRQAPGKGLEWVSGISGSGGSTFYVDSLQGRFTLSRDNSKHTLFLQMNSLRAEDTAIYYCAKENTYGHFDYWGQGTLVTVSS
VL: DIQLTQSPSFLSASVGDRVTITCWASQDISTYLAWYQQKPGKAPQVLIYAASSLQYGVPSRFSGSGSGTEFTLTITSLQPEDFATYYCQQLIGYPYIFGQGTKLEIK
B7: the 293/hGFRα3/hRET SRE-luc % Blocking was 93%, the 293/hGFRα3/hRET/SRE-Luc IC50 was 1.5 nM, the MCF7/SRE-Luc % Activation stood at 0% and the MCF7/SRE-Luc Avg % Blocking is 60%. The MCF7/SRE-luc Avg. IC50 was found to be 0.39 nM.

B8: H4H8079P (antibody, human IgG4, V domains shown)
VH: EVQLVESGGGLVKPGGSLRLSCAASGFTFSNAWMSWVRQAPGKGLEWVGRIKSKTDGGTSEYAAPVKGRFTISRDDSKNTLFLQMNSLKSEDAAVYYCTTGRSWSDYFDFWGQGTLVTVSS
VL: not shown
In turn, B8 yielded a 293/hGFRα3/hRET SRE-luc % Blocking of 96%; a 293/hGFRα3/hRET/SRE-Luc IC50 of 0.8 nM; an Internalization (% H4H8087P), HEK293/hGFRa1/hRET/SRE-Luc cells, 37 C of 62.8%; an MCF7/SRE-Luc % Activation of 0%. In addition, the MCF7/SRE-Luc Avg % Blocking was 90% and the MCF7/SRE-luc Avg. IC50 turned out to be 0.15 nM.

B9: H2M7086N (antibody, mouse IgG2, V domains shown)
VH: QVQLVESGGGVVQPGRSLRLSCVVSGFTFSNYGMHWVRQGPGRGLEWLALIWYDGSDKYYAESVRGRFTISRDNSKNTVYLQMNSLRAEDTAMYYCTRDRIFDYWGQGTLVTVSS
VL: AIQMTQSPSSLSASVGDRVTITCRASQDIRNDLGWYQHNPGKAPNLLIYAASTLQIGVPSRFRGSGSGTDFTLTISSLQPEDFATYYCLQDFDYPLSFGGGTKVEIR
B9: the 293/hGFRα3/hRET SRE-luc % Blocking amounted to 98%, the 293/hGFRα3/hRET/SRE-Luc IC50 turned out to be 4 nM, the MCF7/SRE-Luc % Activation came out at 0% and the MCF7/SRE-Luc Avg % Blocking came to 100%. The same molecule had an MCF7/SRE-luc Avg. IC50 of 2.6 nM.

B10: H4H8084P (antibody, human IgG4, V domains shown)
VH: QVQLVESGGGVVQPGRSLRLSCEASGFTFRNYGMHWVRQAPGKGLDWVSTIYYDGSDEYYSDSVKGRFTISRDNSKNTLYLQMNSLRAEDTAVYYCARDPPSFRYFDYWGQGTLVTVSS
VL: DIQMTQSPSTLSASVGDRVTITCRASQSIRSWLTWYQQKPGKAPKVLIYKASTLERGVPSRFSGSGSGTEFTLTISSLQPEDFATYYCHQYSSYSYTFGQGTKLEIK
Take B10: the 293/hGFRα3/hRET SRE-luc % Blocking is 94%, the 293/hGFRα3/hRET/SRE-Luc IC50 is 2.1 nM, the MCF7/SRE-Luc % Activation was determined as 0% and the MCF7/SRE-Luc Avg % Blocking was 100%. The MCF7/SRE-luc Avg. IC50 stood at 10.4 nM.

B11: H4H8076P (antibody, human IgG4, V domains shown)
VH: QVQLQQSGPGLVKPSQTLSLTCAISGDSVSSNSVAWNWIRQSPSRGLEWLGRTYYRSNWYNTYAVSVKSRITIDPDTSKNQFSLQLNSVTPEDTALYYCARGHRYSGSYFDYWGQGTLVTVSS
VL: DIQMTQSPSSLSASVGDRVTITCRASQNINSYFNWYQQKPGKAPKLLIYAASSLQSGVPSRFSGGGSGTDFTLTISSLQPEDFATYYCQQTYTIPWTFGQGTKVEIK
In turn, B11 displayed an MCF7/SRE-Luc % Activation of 3%, an MCF7/SRE-Luc Avg % Blocking of 74% and an MCF7/SRE-luc Avg. IC50 of 55.7 nM.

B12: H4H8060P (antibody, human IgG4, V domains shown)
VH: QVTLKESGPVLVKPTETLTLTCTVSGFSLSSARMGVSWIRQPPGKALEWLAHIFSTDEKSYSTSLKSRLSISKDTSLSQVVLIMTNMDPVDTATYYCARRTTMAPYYYYYGMDVWGHGTTVTVSS
VL: AIQMTQSPASLSASVGDRVTITCRASQGIRNDLGWYQQKPGKAPKLLISAASSLQSGVPSRFSGSGSGTDFTLTISSLQPEDFATYYCLQDYKYPWTFGQGTKVEIK
As for B12, the MCF7/SRE-Luc % Activation was found to be 0%, the MCF7/SRE-Luc Avg % Blocking amounted to 87% and the MCF7/SRE-luc Avg. IC50 was over 100 nM.

B13: H4H8080P (antibody, human IgG4, V domains shown)
VH: EVQLVESGGGLVQSGGSLRLSCVASGFTFSTYAMTWVRQAPGRGLEWVSAISGSGASTYYADSLKGRFTVSRDNSKNTLYLQMNSLRAEDTAVYYCSKDHRNYDSDYDMDVWGQGTTVTVSS
VL: DIQMTQSPSSLSASVGDRVTITCRASQGIRNYLGWYQQKPGKAPKRLIYTASSLQSGVPSRFRGSGSGTEFTLTISSLQPEDFATYYCLQHNSYPYTFGQGTKLEIK
The molecule B13 gave a 293/hGFRα3/hRET SRE-luc % Blocking of 57%, a 293/hGFRα3/hRET/SRE-Luc IC50 of 341 nM, an MCF7/SRE-Luc % Activation of 0% and an MCF7/SRE-Luc Avg % Blocking of 41%. Besides, the MCF7/SRE-luc Avg. IC50 is over 100 nM.

B14: H4H8045P (antibody, human IgG4, V domains shown)
VH: EVQLVESGGALVQPGGSLRLSCAASGFTFSNYAMTWVRQAPGMGLEWVSGISSSGASTFYADSVKGRFTISRDNSKNTLYLQMNSLRAEDTAVYYCAKEDYWGWFDYWGQGTLVTVSS
VL: DIQLTQSPSFLSASVGDRVTITCWASQDVSSYLAWYQQEPGKAPKVLIYDASTLQSGVPSRFSGSGSGTEFTLTISSLQPEDFAPYYCQQLNSYPYTFGQGTKLEIK
Regarding B14, the 293/hGFRα3/hRET SRE-luc % Blocking came out at 96%, the 293/hGFRα3/hRET/SRE-Luc IC50 was 0.42 nM, the MCF7/SRE-Luc % Activation amounted to 0% and the MCF7/SRE-Luc Avg % Blocking was 69%. This molecule had an MCF7/SRE-luc Avg. IC50 of 0.14 nM.

B15: H4H8071P (antibody, human IgG4, V domains shown)
VH: EVQLVESGGGLVQPGGSLRLSCAASGFTFTTYFMSWVRQAPGKGLEWVSGISGSGTSTFYVDSMKGRFTISRDNSKNTLYLQMNSLRVEDTAVYFCAKENTYGHFDFWGQGTLVTVSS
VL: DIQLTQSPSFLSASVGDRVTITCWASQDISSHLAWYQQKPGKAPKVLIYDASTLQSGVPSRISGSGSGTEFTLTISSLQPEDFAAYYCQQLDGYPYTFGQGTKLEIK
Take B15: the MCF7/SRE-Luc % Activation was determined as 0%, the MCF7/SRE-Luc Avg % Blocking is 84% and the MCF7/SRE-luc Avg. IC50 was found to be 0.45 nM.
